Source: publication PMC8336837, “Structure of the human C9orf72-SMCR8 complex reveals a multivalent protein interaction architecture” (PLoS Biology, 2021)

T1: C9orf72 (full-length) (human, UniProt Q96LT7 1-481)
T1 construct: C9orf72, human, the longer isoform (481 AA); open reading frame commercially synthesized with codon optimization; also called Fl-C9orf72; C9orf72 Fl; source: Sf-9 insect cells, co-expressed with SMCR8 or SMCR8N-C, purified (Strep-Tactin, size-exclusion chromatography)
T1 sequence (looked up): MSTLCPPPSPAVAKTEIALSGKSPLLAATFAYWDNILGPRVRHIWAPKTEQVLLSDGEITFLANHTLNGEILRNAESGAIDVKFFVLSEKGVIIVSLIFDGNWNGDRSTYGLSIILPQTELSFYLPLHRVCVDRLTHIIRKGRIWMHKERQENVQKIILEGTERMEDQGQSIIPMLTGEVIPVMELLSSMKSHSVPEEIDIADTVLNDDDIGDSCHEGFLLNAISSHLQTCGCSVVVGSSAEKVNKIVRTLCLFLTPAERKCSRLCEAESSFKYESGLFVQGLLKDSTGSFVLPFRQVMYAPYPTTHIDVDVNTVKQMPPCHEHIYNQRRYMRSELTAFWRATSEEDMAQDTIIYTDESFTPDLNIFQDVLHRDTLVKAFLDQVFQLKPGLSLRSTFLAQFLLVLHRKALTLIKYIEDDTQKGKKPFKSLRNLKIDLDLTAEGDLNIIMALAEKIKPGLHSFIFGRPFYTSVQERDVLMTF

T2: SMCR8 (full-length) (human, UniProt Q8TEV9 1-937)
T2 construct: SMCR8, human, open reading frame amplified from a human cDNA library; residues 1-937; also called SMCR8 Fl; source: Sf-9 insect cells, co-expressed with C9orf72, purified (Strep-Tactin, size-exclusion chromatography)
T2 sequence (looked up): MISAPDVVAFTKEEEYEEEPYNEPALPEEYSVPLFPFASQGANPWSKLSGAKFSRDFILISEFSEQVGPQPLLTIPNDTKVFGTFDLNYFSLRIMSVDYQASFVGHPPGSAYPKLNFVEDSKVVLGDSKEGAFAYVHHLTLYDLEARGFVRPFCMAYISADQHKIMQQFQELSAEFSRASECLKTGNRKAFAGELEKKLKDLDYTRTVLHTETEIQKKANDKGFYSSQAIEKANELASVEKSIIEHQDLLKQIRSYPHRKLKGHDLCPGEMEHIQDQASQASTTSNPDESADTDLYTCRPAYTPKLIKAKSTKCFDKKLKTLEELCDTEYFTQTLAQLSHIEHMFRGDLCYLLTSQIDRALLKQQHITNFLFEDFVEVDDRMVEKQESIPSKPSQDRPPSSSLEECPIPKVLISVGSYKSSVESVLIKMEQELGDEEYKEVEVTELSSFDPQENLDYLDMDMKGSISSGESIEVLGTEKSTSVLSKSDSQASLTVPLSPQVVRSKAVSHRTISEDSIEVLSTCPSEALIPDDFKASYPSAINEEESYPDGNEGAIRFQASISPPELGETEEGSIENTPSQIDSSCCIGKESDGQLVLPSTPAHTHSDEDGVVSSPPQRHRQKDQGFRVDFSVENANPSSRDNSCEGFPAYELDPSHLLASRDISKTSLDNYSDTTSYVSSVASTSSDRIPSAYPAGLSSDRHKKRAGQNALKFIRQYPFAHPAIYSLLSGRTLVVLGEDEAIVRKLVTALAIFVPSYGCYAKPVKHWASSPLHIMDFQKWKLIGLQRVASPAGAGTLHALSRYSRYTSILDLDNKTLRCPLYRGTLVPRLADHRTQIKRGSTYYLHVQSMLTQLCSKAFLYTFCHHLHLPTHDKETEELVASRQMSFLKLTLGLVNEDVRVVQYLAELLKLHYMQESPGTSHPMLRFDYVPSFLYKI

T3: full-length C9orf72-SMCR8 complex (GST-tagged) (human, UniProt Q96LT7 1-481; Q8TEV9 1-937)
T3 construct: C9orf72, human, the longer isoform (481 AA); codon-optimised synthetic open reading frame; SMCR8, human, from a human cDNA library; GST on C9orf72 is stated for the GST pull-down; also called GST-tagged C9orf72-SMCR8; source: Sf-9 insect cells, the two proteins co-expressed, purified (Strep-Tactin, size-exclusion chromatography); not shown: GST, N-terminal, kept
T3 sequence (looked up) 1: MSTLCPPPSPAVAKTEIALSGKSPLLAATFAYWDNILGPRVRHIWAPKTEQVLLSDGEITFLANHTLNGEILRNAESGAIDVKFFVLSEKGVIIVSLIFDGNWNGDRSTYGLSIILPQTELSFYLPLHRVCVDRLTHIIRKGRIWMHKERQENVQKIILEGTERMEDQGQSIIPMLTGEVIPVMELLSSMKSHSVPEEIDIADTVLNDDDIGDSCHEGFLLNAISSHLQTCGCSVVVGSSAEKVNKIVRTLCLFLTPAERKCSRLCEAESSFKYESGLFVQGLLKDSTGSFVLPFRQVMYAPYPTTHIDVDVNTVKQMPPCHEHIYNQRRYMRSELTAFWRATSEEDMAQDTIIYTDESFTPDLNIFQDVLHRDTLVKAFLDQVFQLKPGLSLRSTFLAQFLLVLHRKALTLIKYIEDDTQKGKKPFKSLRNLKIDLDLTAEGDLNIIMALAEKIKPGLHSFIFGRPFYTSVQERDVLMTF
T3 sequence (looked up) 2: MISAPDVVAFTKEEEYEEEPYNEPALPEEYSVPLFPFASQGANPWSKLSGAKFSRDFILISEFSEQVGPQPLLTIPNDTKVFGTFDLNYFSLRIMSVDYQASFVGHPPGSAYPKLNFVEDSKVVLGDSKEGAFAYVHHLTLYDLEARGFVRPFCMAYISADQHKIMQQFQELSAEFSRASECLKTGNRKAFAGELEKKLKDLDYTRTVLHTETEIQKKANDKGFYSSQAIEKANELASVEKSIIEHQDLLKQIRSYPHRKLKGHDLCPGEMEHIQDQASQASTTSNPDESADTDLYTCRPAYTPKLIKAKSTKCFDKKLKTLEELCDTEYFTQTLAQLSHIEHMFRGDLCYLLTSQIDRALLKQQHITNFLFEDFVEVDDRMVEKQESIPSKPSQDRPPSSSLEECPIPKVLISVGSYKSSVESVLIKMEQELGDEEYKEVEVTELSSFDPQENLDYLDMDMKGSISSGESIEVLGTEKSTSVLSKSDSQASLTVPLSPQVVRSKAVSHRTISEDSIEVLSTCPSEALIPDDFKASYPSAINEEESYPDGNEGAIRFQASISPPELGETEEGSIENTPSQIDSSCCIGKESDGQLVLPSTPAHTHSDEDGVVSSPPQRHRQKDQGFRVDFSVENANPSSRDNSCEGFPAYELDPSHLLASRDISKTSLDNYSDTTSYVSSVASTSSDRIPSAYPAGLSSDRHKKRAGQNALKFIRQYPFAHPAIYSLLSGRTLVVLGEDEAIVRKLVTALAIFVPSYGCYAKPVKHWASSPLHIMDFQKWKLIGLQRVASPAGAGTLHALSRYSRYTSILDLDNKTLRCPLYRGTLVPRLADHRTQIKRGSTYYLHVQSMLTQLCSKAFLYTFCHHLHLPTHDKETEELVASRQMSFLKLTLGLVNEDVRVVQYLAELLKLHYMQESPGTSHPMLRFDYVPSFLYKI


Key:
Conditions in all cases: both partners purified
C9orf72 (full-length) = target: T1, C9orf72 (full-length); assay: SEC; limited proteolysis: full-length C9orf72-SMCR8-WDR41 complex (0.93 mg) with trypsin (4.6 ug) 20 minutes on ice, then size-exclusion chromatography; bands of the peak fraction identified by tandem mass spectrometry
SMCR8 (full-length) = target: T2, SMCR8 (full-length); assay: cross-linking; DSSO (0.5 to 10 mM, 1 hour at room temperature) on C9orf72-SMCR8 complex mixed with WDR41 in equimolar ratio (200 pmol) in 20 mM HEPES pH 8.0, 150 mM NaCl, 2 mM DTT, 3% glycerol; mass spectrometry after digestion
[1] = target: T3, full-length C9orf72-SMCR8 complex …; assay: SEC; reconstitution of the trimeric complex from purified C9orf72-SMCR8 and WDR41; Superose 6 10/300 GL, 20 mM HEPES pH 8.0, 150 mM NaCl, 2 mM DTT, 3% glycerol

| binding result (C9orf72 (full-length)) | binding result (SMCR8 (full-length)) | binding result [1] | Binder |
| --- | --- | --- | --- |
| binds | – | – | carboxyl-terminal domain of SMCR8 (SMCR8C), tryptic fragment (domain or fragment, human, UniProt Q8TEV9 620-937, looked up, SMCR8, human, residues 620 to 937, product of limited proteolysis identified by mass spectrometry; source: Sf-9 insect cells; purified full-length C9orf72-SMCR8-WDR41 complex cut with trypsin) RQKDQGFRVDFSVENANPSSRDNSCEGFPAYELDPSHLLASRDISKTSLDNYSDTTSYVSSVASTSSDRIPSAYPAGLSSDRHKKRAGQNALKFIRQYPFAHPAIYSLLSGRTLVVLGEDEAIVRKLVTALAIFVPSYGCYAKPVKHWASSPLHIMDFQKWKLIGLQRVASPAGAGTLHALSRYSRYTSILDLDNKTLRCPLYRGTLVPRLADHRTQIKRGSTYYLHVQSMLTQLCSKAFLYTFCHHLHLPTHDKETEELVASRQMSFLKLTLGLVNEDVRVVQYLAELLKLHYMQESPGTSHPMLRFDYVPSFLYKI |
| – | binds | binds | WDR41 (full-length) (natural protein, human, UniProt Q9HAD4 1-459, looked up, WDR41, human, open reading frame amplified from a human cDNA library; also called WDR41 Fl; source: Sf-9 insect cells, expressed individually, purified (Strep-Tactin, size-exclusion chromatography)) MLRWLIGGGREPQGLAEKSPLQTIGEEQTQNPYTELLVLKAHHDIVRFLVQLDDYRFASAGDDGIVVVWNAQTGEKLLELNGHTQKITAIITFPSLESCEEKNQLILTASADRTVIVWDGDTTRQVQRISCFQSTVKCLTVLQRLDVWLSGGNDLCVWNRKLDLLCKTSHLSDTGISALVEIPKNCVVAAVGKELIIFRLVAPTEGSLEWDILEVKRLLDHQDNILSLINVNDLSFVTGSHVGELIIWDALDWTMQAYERNFWDPSPQLDTQQEIKLCQKSNDISIHHFTCDEENVFAAVGRGLYVYSLQMKRVIACQKTAHDSNVLHVARLPNRQLISCSEDGSVRIWELREKQQLAAEPVPTGFFNMWGFGRVSKQASQPVKKQQENATSCSLELIGDLIGHSSSVEMFLYFEDHGLVTCSADHLIILWKNGERESGLRSLRLFQKLEENGDLYLAV |
